As a reminder, the kcat is the number of substrate molecules converted per active site and unit of time at saturation.

The subject of data set [1] is CC(C)=CCC/C(C)=C/CC/C(C)=C/CC/C(C)=C/COP(=O)(O)OP(=O)(O)O. Description: cells, lysate or membranes. Particulars: in living S. cerevisiae, exponential growth, 28 °C, medium pH 5.0, PGI1p expression, total intracellular substrate concentration, partial saturation.
In the next data set the target is T1, PaCrtI (Pantoea ananatis, UniProt P21685).
T1 construct: gene crtI; full-length, yeast codon-optimized synthetic gene, expressed in Saccharomyces cerevisiae under TDH3p; V5 tag (CrtI-V5 in western blot)
Description: in vivo lycopene flux vs intracellular phytoene in yeast strains, Michaelis-Menten fit. The format is cell-based. The following applies: read-out: K1/2cell; in living S. cerevisiae, exponential growth, 28 °C, medium pH 5.0; TDH3p expression; total intracellular substrate concentration; lower limit only, no saturation.

Substrate in data set [2]: CC(C)=CCC/C(C)=C/CC/C(C)=C/CC/C(C)=C/C=C\C=C(/C)CC/C=C(\C)CC/C=C(\C)CCC=C(C)C
The data set is described as above. Type of data set: cell-based, Phaffia rhodozyma. The following applies: in living S. cerevisiae, exponential growth, 28 °C, medium pH 5.0, PGK1p expression, total intracellular substrate concentration.

Substrate in data set [3]: CC(C)=CCC/C(C)=C/CC/C(C)=C/CC/C(C)=C/C=C\C=C(/C)CC/C=C(\C)CC/C=C(\C)CCC=C(C)C
The data set is described as above. Type of data set: cell-based, Blakeslea trispora. The following applies: in living S. cerevisiae, exponential growth, 28 °C, medium pH 5.0, PGI1p expression, total intracellular substrate concentration, enzyme level slightly higher in low-phytoene strains.

T1 sequence (P21685 whole entry): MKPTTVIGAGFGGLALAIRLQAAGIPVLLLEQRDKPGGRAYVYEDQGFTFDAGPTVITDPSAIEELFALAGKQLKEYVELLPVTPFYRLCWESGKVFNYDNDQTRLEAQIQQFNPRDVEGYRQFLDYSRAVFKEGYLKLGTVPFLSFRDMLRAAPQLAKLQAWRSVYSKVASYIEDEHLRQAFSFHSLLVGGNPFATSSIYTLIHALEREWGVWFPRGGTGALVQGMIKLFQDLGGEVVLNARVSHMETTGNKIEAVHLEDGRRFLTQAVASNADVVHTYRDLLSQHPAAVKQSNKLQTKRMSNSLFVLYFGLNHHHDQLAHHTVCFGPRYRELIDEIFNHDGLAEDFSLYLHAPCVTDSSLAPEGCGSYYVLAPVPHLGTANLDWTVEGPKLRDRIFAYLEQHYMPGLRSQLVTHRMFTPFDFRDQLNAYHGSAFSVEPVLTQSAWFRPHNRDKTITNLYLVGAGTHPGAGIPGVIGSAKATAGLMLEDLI

Turning to PaCrtB (Pantoea ananatis), in data set [1], the K0.5 stood at 19 ± 3 µM and the kcat was 6 ± 1 s⁻¹.
As for `CC(C)=CCC/C(C)=C/CC/C(C)=C/CC/C(C)=C/C=C\C=C(/C)CC/C=C(\C)CC/C=C(\C)CCC=C(C)C` [phytoene], the Km on PaCrtI is greater than 560 µM.

B1: XdCrtI (Phaffia rhodozyma) (protein)
chain: MGKEKDQDKPTAIIVGCGIGGIATAARLAKEGFQVTVFEKNDYSGGRCSLIERDGYRFDQGPSLLLLPDLFKQTFEDLGEKMEDWVDLIKCEPNYVCHFHDEETFTLSTDMALLKREVERFEGKDGFDRFLSFIQEAHRHYELAVVHVLQKNFPGFAAFLRLQFIGQILALHPFESIWTRVCRYFKTDRLRRVFSFAVMYMGQSPYSAPGTYSLLQYTELTEGIWYPRGGFWQVPNTLLQIVKRNNPSAKFNFNAPVSQVLLSPAKDRATGVRLESGEEHHADVVIVNADLVYASEHLIPDDARNKIGQLGEVKRSWWADLVGGKKLKGSCSSLSFYWSMDRIVDGLGGHNIFLAEDFKGSFDTIFEELGLPADPSFYVNVPSRIDPSAAPEGKDAIVILVPCGHIDASNPQDYNKLVARARKFVIQTLSAKLGLPDFEKMIVAEKVHDAPSWEKEFNLKDGSILGLAHNFMQVLGFRPSTRHPKYDKLFFVGASTHPGTGVPIVLAGAKLTANQVLESFDRSPAPDPNMSLSVPYGKPLKSNGTGIDSQVQLKFMDLERWVYLLVLLIGAVIARSVGVLAF
notes: full-length, gene amplified from a plasmid, expressed in Saccharomyces cerevisiae under PGK1p; V5 tag (CrtI-V5 in western blot)
Turning to B1, in data set [2], the K0.5 is 380 ± 49 µM and the kcat was found to be 0.030 ± 0.006 s⁻¹.

B2: BtCrtI (Blakeslea trispora) (protein)
chain: MSDQKKHIVVIGAGIGGTATAARLAREGFRVTVVEKNDFSGGRCSFIHHDGHRFDQGPSLYLMPKLFEDAFADLDERIGDHLDLLRCDNNYKVHFDDGDAVQLSSDLTKMKGELDRIEGPLGFGRFLDFMKETHVHYEQGTFIAIKRNFETIWDLIRLQYVPEIFRLHLFGKIYDRASKYFQTKKMRMAFTFQTMYMGMSPYDAPAVYSLLQYTEFAEGIWYPRGGFNMVVQKLESIASKKYGAEFRYQSPVAKINTVDKDKRVTGVTLESGEVIEADAVVCNADLVYAYHHLLPPCNWTKKTLASKKLTSSSISFYWSMSTKVPQLDVHNIFLAEAYKESFDEIFNDFGLPSEASFYVNVPSRIDESAAPPNKDSIIVLVPIGHMKSKTGNSAEENYPELVNRARKMVLEVIERRLGVNNFANLIEHEEVNDPSVWQSKFNLWRGSILGLSHDVFQVLWFRPSTKDSTNRYDNLFFVGASTHPGTGVPIVLAGSKLTSDQVCKSFGQNPLPRKLQDSQKKYAPEQTSKTESHWIYYCLACYFVTFLFFYFFPRDDTTTPASFINQLLPNVFQVQNSNDIRI
notes: full-length, yeast codon-optimized synthetic gene, expressed in Saccharomyces cerevisiae under PGI1p; V5 tag (CrtI-V5 in western blot)
As for B2, in data set [3], the K0.5 came to 41 ± 12 µM.

The values are drawn from paper PMC11535393, “Combining systems and synthetic biology for in vivo enzymology” (The EMBO Journal, 2024).
